Reference: patent US20090137002A1 (published 2009)
Blank lines part the entries; values can stand above or below the binder they belong to.

How the values were obtained:
[1] = molecular target: T1, recombinant mouse EphB2 (mouse, UniProt P54763 19-540, limits assumed); experiment: ELISA on coated receptor
T1 construct: also called mEphB2
T1 sequence (looked up): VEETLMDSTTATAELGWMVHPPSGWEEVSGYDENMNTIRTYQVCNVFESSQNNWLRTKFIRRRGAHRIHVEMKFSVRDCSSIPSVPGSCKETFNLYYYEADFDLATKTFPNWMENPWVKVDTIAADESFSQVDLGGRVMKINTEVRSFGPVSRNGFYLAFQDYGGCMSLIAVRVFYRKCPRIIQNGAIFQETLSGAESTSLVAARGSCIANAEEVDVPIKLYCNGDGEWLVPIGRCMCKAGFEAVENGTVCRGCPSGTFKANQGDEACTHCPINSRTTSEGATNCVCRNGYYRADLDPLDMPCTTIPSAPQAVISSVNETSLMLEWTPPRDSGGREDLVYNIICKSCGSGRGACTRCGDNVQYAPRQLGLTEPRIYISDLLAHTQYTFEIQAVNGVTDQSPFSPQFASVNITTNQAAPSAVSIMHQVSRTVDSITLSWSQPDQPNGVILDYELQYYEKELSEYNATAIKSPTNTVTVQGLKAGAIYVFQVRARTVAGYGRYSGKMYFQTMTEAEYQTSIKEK
Experimental: (§1) A 96-well plate was coated with recombinant mEphB1, -2, -3, -4, -6, mEphA4 and hEphB4 in PBS o/n at 4° C. (5 μg/mL; 100 μL/well). The next day, the antigen was discarded and the plate blocked with 3% BSA/PBS (300 μl/well) for 2 hrs at room temperature (RT). Blocking solution was discarded and anti-EphB4 Fabs were added to the wells at a concentration of 20 μg/mL in 1% BSA/PBS and incubated for 1 hr at RT. Fabs were discarded and the plate was washed 3× with PBS. Anti-human F(ab′)₂—HRP was added at a concentration recommended by the manufacturer in 1% BSA/PBS and incubated for 1 hr at RT. The plate was washed 3× with PBS and 100 μL/well chemifluorescent substrate was added. After development, fluorescence was measured in a fluorescence reader.

[2] = molecular target: T2, recombinant mouse EphA4-Fc fusion protein (mouse, UniProt Q03137 20-547, limits assumed); experiment: ELISA on coated receptor
T2 construct: also called mEphA4; not shown: Fc part, not described
T2 sequence (Q03137 20-547 limits assumed): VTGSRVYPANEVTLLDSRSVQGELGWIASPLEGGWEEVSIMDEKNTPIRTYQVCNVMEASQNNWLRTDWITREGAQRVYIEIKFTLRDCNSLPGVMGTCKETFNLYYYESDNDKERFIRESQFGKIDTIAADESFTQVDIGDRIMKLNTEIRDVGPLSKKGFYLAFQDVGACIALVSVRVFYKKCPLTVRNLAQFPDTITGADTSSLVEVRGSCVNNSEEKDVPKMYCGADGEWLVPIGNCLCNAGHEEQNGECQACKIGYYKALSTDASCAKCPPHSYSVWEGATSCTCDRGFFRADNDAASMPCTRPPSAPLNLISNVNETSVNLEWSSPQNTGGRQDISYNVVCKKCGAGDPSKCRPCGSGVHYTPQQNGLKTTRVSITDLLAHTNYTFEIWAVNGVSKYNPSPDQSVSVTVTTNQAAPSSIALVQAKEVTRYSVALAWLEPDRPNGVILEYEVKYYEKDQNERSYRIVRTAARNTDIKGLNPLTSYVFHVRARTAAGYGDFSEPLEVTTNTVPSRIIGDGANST
Experimental: as §1

[3] = molecular target: T3, rat EphB1 (rat, UniProt P09759 18-538, limits assumed); experiment: ELISA on coated receptor
T3 sequence (looked up): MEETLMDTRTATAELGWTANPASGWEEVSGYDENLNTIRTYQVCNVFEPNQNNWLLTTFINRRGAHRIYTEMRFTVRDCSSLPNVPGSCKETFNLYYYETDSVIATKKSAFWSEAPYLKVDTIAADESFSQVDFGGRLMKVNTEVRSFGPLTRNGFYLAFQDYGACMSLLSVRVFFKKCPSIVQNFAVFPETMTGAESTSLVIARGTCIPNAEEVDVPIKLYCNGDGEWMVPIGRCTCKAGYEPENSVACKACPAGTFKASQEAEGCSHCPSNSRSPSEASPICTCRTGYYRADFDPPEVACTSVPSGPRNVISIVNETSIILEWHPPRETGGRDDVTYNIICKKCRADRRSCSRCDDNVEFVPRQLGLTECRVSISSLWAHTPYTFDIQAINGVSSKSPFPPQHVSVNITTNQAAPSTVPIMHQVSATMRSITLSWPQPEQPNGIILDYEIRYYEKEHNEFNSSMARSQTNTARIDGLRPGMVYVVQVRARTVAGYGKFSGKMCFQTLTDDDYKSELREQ

[4] = molecular target: T4, recombinant human EphB4-Fc fusion protein (human, UniProt P54760 16-539); experiment: SET (MSD), solution equilibrium titration
T4 construct: extracellular domain; also called hEphB4; hu EphB4-Fc
T4 sequence (looked up): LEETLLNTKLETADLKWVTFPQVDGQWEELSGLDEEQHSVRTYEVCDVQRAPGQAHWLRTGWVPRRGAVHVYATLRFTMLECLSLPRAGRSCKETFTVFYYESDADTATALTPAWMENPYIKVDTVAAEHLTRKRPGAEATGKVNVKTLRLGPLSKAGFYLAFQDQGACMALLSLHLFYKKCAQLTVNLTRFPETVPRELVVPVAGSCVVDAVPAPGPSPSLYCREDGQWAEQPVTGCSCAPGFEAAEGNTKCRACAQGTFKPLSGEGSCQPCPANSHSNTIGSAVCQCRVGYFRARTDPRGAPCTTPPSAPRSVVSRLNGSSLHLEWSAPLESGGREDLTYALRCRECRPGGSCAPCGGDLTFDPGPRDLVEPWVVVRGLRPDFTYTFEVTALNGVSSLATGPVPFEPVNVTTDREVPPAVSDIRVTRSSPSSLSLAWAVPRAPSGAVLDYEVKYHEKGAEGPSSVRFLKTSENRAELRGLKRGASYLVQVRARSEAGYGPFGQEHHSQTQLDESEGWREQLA
Experimental: Two independent measurements were performed on human and murine EphB4-Fc.

[5] = molecular target: T1, recombinant mouse EphB2; experiment: ELISA, well M15 [part 2]

binding result [1]: no binding (tested: 20 µg/mL)
binding result [2]: no binding (tested: 20 µg/mL)
binding result [3]: no binding (tested: 20 µg/mL)
Kd [4]: > 5 nM
B1: MOR03641 Fab (Fab, V domains shown)
VH: QVQLVQSGAEVKKPGSSVKVSCKASGGTFSTYAISWVRQAPGQGLEWMGRIIPIFGTANYAQKFQGRVTITADESTSTAYMELSSLRSEDTAVYYCARSSYTILTTYYNYNAMDNWGQGTLVTVSS
VL: DIQMTQSPSSLSASVGDRVTITCRASQNINNFLNWYQQKPGKAPKLLIYGSSILQSGVPSRFSGSGSGTDFTLTISSLQPEDFAVYYCHQVSDTSDTFGQGTKVEIKR
notes: Monomeric HuCAL Fab (VH1A, kappa1), purified, MH-tagged; also called 3541 [sic]

binding result [1]: no binding (tested: 20 µg/mL)
binding result [2]: no binding (tested: 20 µg/mL)
binding result [3]: no binding (tested: 20 µg/mL)
B2: MOR03639 Fab (Fab, V domains shown)
VH: QVQLVESGGGLVQPGGSLRLSCAASGFTFSNYYLHWVRQAPGKGLEWVSGISYSGSSTYYADSVKGRFTISRDNSKNTLYLQMNSLRAEDTAVYYCARFYQRRQIPHGYDVWGQGTLVTVSS
VL: DIELTQPPSVSVAPGQTARISCSGDNIGDYYVHWYQQKPGQAPVLVIYRDSNRPSGIPERFSGSNSGNTATLTISGTQAEDEADYYCGSYDMPFGGTVFGGGTKLTVLG
notes: Monomeric HuCAL Fab (VH3, lambda3), purified, MH-tagged

binding result [5]: no binding
Kd [4]: 1.05 nM
B3: MOR03640 Fab (Fab, V domains shown)
VH: QVQLVESGGGLVQPGGSLRLSCAASGFTFNNSWMSWVRQAPGKGLEWVSNITSSSSMTHYADSVKGRFTISRDNSKNTLYLQMNSLRAEDTAVYYCARKGMSFYNNKYAKSMFDLWGQGTLVTVSS
VL: DIELTQPPSVSVAPGQTARISCSGDNLGKKYVHWYQQKPGQAPVLVIYYDSKRPSGIPERFSGSNSGNTATLTISGTQAEDEADYYCSAWTTTMMHIVFGGGTKLTVLG
notes: Monomeric HuCAL Fab, purified, MH-tagged
